Our source for the EC50 and ratio EC50 pH 5.5/EC50 pH 7.4 values is patent US20170174776A1.

In experiment [1] the target is fusion protein of the human transferrin receptor extracellular domain linked to human IgG1 Fc (human) (UniProt P02786). Description: ELISA, coated human TfR ECD-Fc, pH 5.5. In general terms: An ELISA detects its analyte on a solid surface through an enzyme-linked reagent.
Experiment [2] has the same target. Nature of the experiment: ELISA, coated human TfR ECD-Fc, pH 7.4.
Experiment [3] has the same target. Nature of the experiment: ELISA, coated human TfR ECD-Fc, pH 5.5 against pH 7.4.

Sequence of fusion protein of the human transferrin receptor extracellular domain linked to human IgG1 Fc (human) (P02786 89-760): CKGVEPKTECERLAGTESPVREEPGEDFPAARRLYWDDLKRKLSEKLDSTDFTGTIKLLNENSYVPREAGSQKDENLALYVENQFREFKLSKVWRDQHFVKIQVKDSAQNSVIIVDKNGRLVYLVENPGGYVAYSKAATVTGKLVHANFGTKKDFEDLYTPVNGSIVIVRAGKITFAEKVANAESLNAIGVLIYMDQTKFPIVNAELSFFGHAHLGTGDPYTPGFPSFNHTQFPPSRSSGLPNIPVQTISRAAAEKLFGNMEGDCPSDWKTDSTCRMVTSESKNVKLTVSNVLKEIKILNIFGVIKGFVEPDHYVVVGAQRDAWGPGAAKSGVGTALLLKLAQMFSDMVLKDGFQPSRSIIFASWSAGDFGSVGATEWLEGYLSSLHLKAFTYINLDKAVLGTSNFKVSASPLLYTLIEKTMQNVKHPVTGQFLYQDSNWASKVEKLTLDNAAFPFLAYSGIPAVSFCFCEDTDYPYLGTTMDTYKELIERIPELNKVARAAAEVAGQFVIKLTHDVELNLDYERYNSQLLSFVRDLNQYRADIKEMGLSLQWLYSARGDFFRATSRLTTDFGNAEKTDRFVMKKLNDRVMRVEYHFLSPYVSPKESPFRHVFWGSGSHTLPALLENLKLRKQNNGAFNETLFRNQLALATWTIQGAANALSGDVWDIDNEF

As a reminder, the EC50 is the concentration that produces a half-maximal response. Read a low EC50 as a more potent agent. Turning to mAb MEM-75 (antibody), the EC50 in experiment [1] came to 0.59 µg/mL.

Regarding mAb MEM-189 (antibody), the EC50 was above 1 µg/mL in experiment [1] and 0.0642 µg/mL in experiment [2]. The ratio EC50 pH 5.5/EC50 pH 7.4 in experiment [3] was above 15.6.

As for mAb OKT-9 (antibody), the EC50 in experiment [1] was determined as 0.691 µg/mL; in experiment [2] it was 0.065 µg/mL. Besides, in experiment [3], the ratio EC50 pH 5.5/EC50 pH 7.4 worked out at 10.6.
